{
  "source": "patent US20100209490A1",
  "key": {"[1]": {"molecular_target": "human DR5 (death receptor 5) (human) (UniProt O14763)", "assay": "cell-based or functional assay"}, "human Fas (human)": {"molecular_target": "human Fas (human) (UniProt P25445)", "sequence (P25445 26-335)": "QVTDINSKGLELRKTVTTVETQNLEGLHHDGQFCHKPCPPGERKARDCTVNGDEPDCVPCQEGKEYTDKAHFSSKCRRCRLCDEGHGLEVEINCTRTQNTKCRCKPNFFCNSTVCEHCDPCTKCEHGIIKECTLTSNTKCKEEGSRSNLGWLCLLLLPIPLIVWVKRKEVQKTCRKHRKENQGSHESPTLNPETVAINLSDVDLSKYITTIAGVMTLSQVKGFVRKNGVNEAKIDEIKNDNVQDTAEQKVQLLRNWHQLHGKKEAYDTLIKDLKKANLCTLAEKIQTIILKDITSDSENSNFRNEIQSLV", "assay": "cell-based or functional assay"}},
  "data": [
    {"substance": "Mouse Anti-hDR5 Antibody (MAB631)", "values": [
      {"measurement": "EC50 (50% cell viability), Jurkat cells, immunoliposome of Example 36", "setting": "[1]", "result": 0.069, "unit": "ng/mL"},
      {"measurement": "EC50 (50% cell viability), Jurkat cells, immunoliposome of Example 37", "setting": "[1]", "result": 0.089, "unit": "ng/mL"},
      {"measurement": "EC50 (50% cell viability), Jurkat cells, secondary antibody-cross-linked MAB631", "setting": "[1]", "result": 13.4, "unit": "ng/mL"},
      {"measurement": "EC50 Ab/IL, Jurkat cells, cross-linked MAB631 vs immunoliposome of Example 36", "setting": "[1]", "result": 194},
      {"measurement": "EC50 Ab/IL, Jurkat cells, cross-linked MAB631 vs immunoliposome of Example 37", "setting": "[1]", "result": 150},
      {"measurement": "cell viability at 0.1 ng/ml, Jurkat cells, immunoliposome of Example 36 (% cell viability)", "setting": "[1]", "result": "< 50"},
      {"measurement": "cell viability at 0.1 ng/ml, Jurkat cells, immunoliposome of Example 37 (% cell viability)", "setting": "[1]", "result": "< 50"},
      {"measurement": "cell viability at 10 or 1000 ng/ml, Jurkat cells, immunoliposome of Example 36 (% cell viability)", "setting": "[1]", "result": "< 5"},
      {"measurement": "cell viability at 10 or 1000 ng/ml, Jurkat cells, immunoliposome of Example 37 (% cell viability)", "setting": "[1]", "result": "< 5"}
    ]},
    {"substance": "Mouse Anti-hDR5 Antibody (MAB6311)", "values": [
      {"measurement": "EC50 (50% cell viability), Jurkat cells, immunoliposome of Example 38", "setting": "[1]", "result": 0.075, "unit": "ng/mL"},
      {"measurement": "EC50 (50% cell viability), Jurkat cells, immunoliposome of Example 39", "setting": "[1]", "result": 0.083, "unit": "ng/mL"},
      {"measurement": "EC50 (50% cell viability), Jurkat cells, secondary antibody-cross-linked MAB6311", "setting": "[1]", "result": 2.39, "unit": "ng/mL"},
      {"measurement": "EC50 Ab/IL, Jurkat cells, cross-linked MAB6311 vs immunoliposome of Example 38", "setting": "[1]", "result": 31.9},
      {"measurement": "EC50 Ab/IL, Jurkat cells, cross-linked MAB6311 vs immunoliposome of Example 39", "setting": "[1]", "result": 28.8},
      {"measurement": "cell viability at 0.1 ng/ml, Jurkat cells, immunoliposome of Example 38 (% cell viability)", "setting": "[1]", "result": "< 40"},
      {"measurement": "cell viability at 0.1 ng/ml, Jurkat cells, immunoliposome of Example 39 (% cell viability)", "setting": "[1]", "result": "< 40"},
      {"measurement": "cell viability at 10 or 1000 ng/ml, Jurkat cells, immunoliposome of Example 38 (% cell viability)", "setting": "[1]", "result": "< 5"},
      {"measurement": "cell viability at 10 or 1000 ng/ml, Jurkat cells, immunoliposome of Example 39 (% cell viability)", "setting": "[1]", "result": "< 5"}
    ]},
    {"substance": "Mouse Anti-hFas Antibody (DX2)", "values": [
      {"measurement": "cell viability at 500 or 5000 ng/ml, WR19L12a cells, immunoliposome of Example 40 (% cell viability)", "setting": "human Fas (human)", "result": "< 20"}
    ]}
  ]
}
